This passage reports Kd results from paper PMC3154745.

The experiment addresses Full length mammalian HP1β (human or mouse (sequences identical)) (UniProt P83916). Nature of the experiment: AUC.

Chain of Full length mammalian HP1β, P83916 1-185 (natural protein; other documents disagree on this pair) (P83916 whole entry): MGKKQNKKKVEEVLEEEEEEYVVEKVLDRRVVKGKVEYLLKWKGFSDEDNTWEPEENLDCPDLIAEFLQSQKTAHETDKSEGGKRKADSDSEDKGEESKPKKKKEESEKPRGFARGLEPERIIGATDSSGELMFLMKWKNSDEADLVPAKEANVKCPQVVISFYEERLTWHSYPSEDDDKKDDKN

The substance “Full length mammalian HP1β, P83916 1-185 (natural protein; other documents disagree on this pair)” displayed a Kd of 500 nM.
